{"source": "patent US20110223188A1", "about": "“TARGETED COSTIMULATORY POLYPEPTIDES AND METHODS OF USE TO TREAT CANCER” (priority 2008, published 2011)", "key": {"[1]": {"test_system": "Treg; CD4+ T cells expressing high PD-1", "assay": "T cell analysis (Treg, PD-1+/CD4+ T cells) in CT26 tumor-bearing mice", "format": "in vivo, Balb/C mice", "experimental": "(§1) On Day 9, mice were injected with 100 mg/kg of CTX, IP. Twenty four hours later, on Day 10, mice were treated with 100 ug of 137-DC-Ig. […] Two naïve mice and 4 mice from other groups were removed from the study on Day 11 (2 days post CTX) and Day 16 (7 days post CTX) for T cell analysis. […] Mice implanted with tumor cells intended to have more PD-1+/CD4+ T cells in the draining LN compared with naïve mice.\nas §1, with “IP.” for “IP. Twenty four hours later, on Day 10, mice were treated with 100 ug of 137-DC-Ig.”"}, "[2]": {"test_system": "SP-1 mouse prostate tumor cells", "assay": "Metastatic prostate lung tumor model (SP-1), survival", "format": "in vivo, B10.D2 mice", "settings": "CTX 50 mg/kg Day 5, 12, 19; B7-DC-Ig 5 mg/kg Day 6, 13, 20", "experimental": "SP-1 cells were isolated from mouse lungs that were metastasized from. TRAMP prostate tumor cell injection. B10.D2 mice were first injected with 3×10^5 SP-1 cells via tail vein injection. On Day 5, 12 and 19, mice were injected with 50 mg/kg of CTX where was indicated. […] Here, “NT” refers to “not treated”.\nThe CTX mice received 3 doses of CTX, 50 mg/kg, on Day 5, 12 and 19."}, "[3]": {"test_system": "CT26 colorectal tumor cells", "assay": "Established CT26 colorectal tumor model (subcutaneous)", "settings": "CTX 100 mg/kg on day 10 alone", "source_text": "Balb/C mice at age of 9 to 11 weeks were implanted subcutaneously with 1.0×10^5 CT26 colorectal tumor cells."}, "[4]": {"test_system": "P815 mastocytoma", "assay": "P815 mastocytoma tumor model", "format": "in vivo, DBA/2 mice", "experimental": "P815 mastocytoma cells were derived from DBA/2 mice after methylcholanthrene (MCA) treatment. Injection of 5×10^4 cells SC can result in mortality approximately 35 days post tumor inoculation.\nDBA/2 mice (6-10 weeks of age, females) were first challenged with 5×10^4 live P815 cells injected SC in the flank. Six days later, the mice were treated with murine B7-DC-Ig via IP injection. […] Control groups were treated with vehicle only or with murine IgG. Tumor size was measured with digital calipers every 2-3 days. Mice were euthanized and defined as dead when their tumor size reached or exceeded 1000 mm^3, according to protocols approved by the Institutional Animal Care and Use Committee (IACUC) of the American Red Cross (ARC; the site of Amplimmune's vivarium). Surviving tumor free mice were re-challenged with P815 tumor cells on Day 52.\nThe tumor-free mice were then re-challenged with 5×10^4P815 cells administered to the flank opposite the primary inoculation site on Day 52."}, "[5]": {"settings": "number of mice, 5 per group, P815 cells SC, treatment IP biw 3 weeks starting Day 6"}}, "data": [{"molecule": "O=P1(N(CCCl)CCCl)NCCCO1", "note": "(stereo not drawn) [CTX, cyclophosphamide, reference compound]", "values": [{"measurement": "Treg in the spleen vs tumor-implanted vehicle-injected mice", "setting": "[1]; Day 11, 2 days post CTX 100 mg/kg IP", "value": "significantly lower"}, {"measurement": "mice survived on Day 100", "setting": "[2]", "value": 17, "unit": "%"}, {"measurement": "outcome of mice (tumor growth/survival)", "setting": "[3]", "value": "died as a result of tumor growth or were euthanized"}]}, {"molecule": "Murine B7-DC-Ig: murine B7-DC fusion protein: B7-DC extracellular domain fused to murine immunoglobulin Cγ2a hinge, CH2, CH3 (likely SEQ ID NO:80/81) (protein, Synthetic murine B7-DC fusion protein with signal peptide) MLLLLPILNLSLQLHPVAALFTVTAPKEVYTVDVGSSVSLECDFDRRECTELEGIRASLQKVENDTSLQSERATLLEEQLPLGKALFHIPSVQVRDSGQYRCLVICGAAWDYKYLTVKVKASYMRIDTRILEVPGTGEVQLTCQARGYPLAEVSWQNVSVPANTSHIRTPEGLYQVTSVLRLKPQPSRNFSCMFWNAHMKELTSAIIDPLSRMEPKVPRTWEPRGPTIKPCPPCKCPAPNLLGGPSVFIFPPKIKDVLMISLSPIVTCVVVDVSEDDPDVQISWFVNNVEVHTAQTQTHREDYNSTLRVVSALPIQHQDWMSGKEFKCKVNNKDLPAPIERTISKPKGSVRAPQVYVLPPPEEEMTKKQVTLTCMVTDFMPEDIYVEWTNNGKTELNYKNTEPVLDSDGSYFMYSKLRVEKKNWVERNSYSCSVVHEGLHNHHTTKSFSRTPGK", "values": [{"measurement": "mice responded to treatment", "setting": "[4]; 100 μg per injection (approximately 5 mg/kg) IP, 2 times per week, up to 6 doses", "value": "Four of 5"}, {"measurement": "# Tumor <500 mm^3", "setting": "[4]; [5]", "value": 2}, {"measurement": "# Tumor free", "setting": "[4]; [5]", "value": 2}, {"measurement": "# Tumor ≧500 mm^3", "setting": "[4]; [5]", "value": 1}, {"measurement": "mice in which tumor was eradicated", "setting": "[4]; of 5 treated mice", "value": "two"}, {"measurement": "mice showing delayed tumor growth during treatment", "setting": "[4]; of 5 treated mice", "value": "two"}, {"measurement": "tumor status after re-challenge with P815 cells on Day 52", "setting": "[4]; tumor-free mice re-challenged on opposite flank, followed through 74 days after primary inoculation", "value": "remained tumor free"}, {"measurement": "CD4+ T cells expressing high PD-1", "setting": "[1]; Day 16, 7 days post CTX and 6 days post B7-DC-Ig 100 ug", "value": "significantly lowered"}, {"measurement": "mice survived on Day 100", "setting": "[2]", "value": 17, "unit": "%"}]}]}
